Source: article PMC2605266 (2008)

Experiments:
[1] = target: GST-VAMP2 harbouring only the SNARE motif (VAMP2 lacking the first 30 amino acids) (Rattus norvegicus (Rat), UniProt P63045); assay: GST pull-down, immunoblot
[2] = target: GST fused to the cytosolic domain of VAMP2 (Rattus norvegicus (Rat), UniProt P63045); assay: GST pull-down, immunoblot
GST fused to the cytosolic domain of VAMP2, sequence (P63045 1-92): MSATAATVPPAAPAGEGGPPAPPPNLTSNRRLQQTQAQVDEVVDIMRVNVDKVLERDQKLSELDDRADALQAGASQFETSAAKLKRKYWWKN

GST-VAMP2 harbouring only the SNARE motif (VAMP2 lacking the first 30 amino acids), sequence (P63045 31-92): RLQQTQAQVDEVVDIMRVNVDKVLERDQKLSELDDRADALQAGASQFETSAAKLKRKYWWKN

binding result [1]: binds | binding result [2]: binds
B1: Munc18c, N-terminal His6-fusion protein (protein)
chain: MAPPVSERGLKSVVWRKIKTAVFDDCRKEGEWKIMLLDEFTTKLLSSCCKMTDLLEEGITVIENIYKNREPVRQMKALYFISPTPKSVDCFLRDFGSKSEKKYKAAYIYFTDFCPDSLFNKIKASCSKSIRRCKEINISFIPQESQVYTLDVPDAFYYCYSPDPSNASRKEVVMEAMAEQIVTVCATLDENPGVRYKSKPLDNASKLAQLVEKKLEDYYKIDEKGLIKGKTQSQLLIIDRGFDPVSTVLHELTFQAMAYDLLPIENDTYKYKTDGKEKEAVLEEDDDLWVRVRHRHIAVVLEEIPKLMKEISSTKKATEGKTSLSALTQLMKKMPHFRKQISKQVVHLNLAEDCMNKFKLNIEKLCKTEQDLALGTDAEGQRVKDSMLVLLPVLLNKNHDNCDKIRAVLLYIFGINGTTEENLDRLIHNVKIEDDSDMIRNWSHLGVPIVPPSQQAKPLRKDRSAEETFQLSRWTPFIKDIMEDAIDNRLDSKEWPYCSRCPAVWNGSGAVSARQKPRTNYLELDRKNGSRLIIFVIGGITYSEMRCAYEVSQAHKSCEVIIGSTHILTPRKLLDDIKMLNKSKDKVSFKDE
